In patent publication US20200031915A1, “IMMUNOGLOBULIN-BINDING PEPTIDE WITH IMPROVED STABILITY” (KANEKA CORPORATION, priority 2017, published 2020):

Target: T1, Fab fragment of humanized monoclonal IgG (Infliximab) (Homo sapiens, UniProt P01834+P01857)
T1 construct: fragmented into a Fab fragment and an Fc fragment by using papain, and the Fc fragment and Fab fragment were purified; purchased Mitsubishi Tanabe Pharma Corporation Remicade (Infliximab)
Assay: Residual Fab-binding activity of GB1#-N08K after alkali treatment (Biacore SPR)
Conditions: 15 mM NaOH final (0.1 mL of 45 mM NaOH added to 0.2 mL of 20 μM peptide), 25° C., 2 hours; ratio to before treatment as 100%; N=4

T1 sequence (P01857 with tags, fused parts or gaps limits assumed, other chains not shown): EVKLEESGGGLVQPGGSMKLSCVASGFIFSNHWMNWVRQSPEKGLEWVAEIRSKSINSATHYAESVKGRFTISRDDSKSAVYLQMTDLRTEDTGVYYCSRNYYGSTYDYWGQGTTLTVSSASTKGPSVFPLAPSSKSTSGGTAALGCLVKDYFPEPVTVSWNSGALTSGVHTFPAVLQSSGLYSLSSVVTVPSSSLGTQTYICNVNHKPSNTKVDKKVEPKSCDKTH

Row | Substance | residual binding activity to Fab after alkali treatment
1 | GB1#-N08A: Comparative example: GB1#-Cont (SEQ ID NO: 4) with mutation N08A; amino acid SEQ ID NO: 41 (TTYKLILAGKTLTGYTTTIAVDAATAEKVLKQFANDNGVDGEWTYDDATKTFTVTE; Altered SpG) | 68%
2 | GB1#-N08K: GB1#-Cont (SEQ ID NO: 4), strong binding ability to Fab, with mutation N08K introduced; amino acid SEQ ID NO: 32 (TTYKLILKGKTLTGYTTTIAVDAATAEKVLKQFANDNGVDGEWTYDDATKTFTVTE; oligo DNA) | 80%
